Data set [1] deals with T1, ICP8Δ60 (HSV-1 ICP8 lacking the 60-aa C-terminal tail) (herpes simplex virus type 1 (HSV-1), …, UniProt P17470 1-1136, in the MST only: labelled on amines with the red dye NT-647-NHS (RED-NHS Monolith kit); unlabelled in the thermal shift assays).
T1 construct: the tail is printed as residues 1136-1196; source: Sf9 insect cells infected with recombinant baculovirus (pFastBac1-ICP8Δ60), purified (SP-Sepharose cation exchange)
T1 sequence: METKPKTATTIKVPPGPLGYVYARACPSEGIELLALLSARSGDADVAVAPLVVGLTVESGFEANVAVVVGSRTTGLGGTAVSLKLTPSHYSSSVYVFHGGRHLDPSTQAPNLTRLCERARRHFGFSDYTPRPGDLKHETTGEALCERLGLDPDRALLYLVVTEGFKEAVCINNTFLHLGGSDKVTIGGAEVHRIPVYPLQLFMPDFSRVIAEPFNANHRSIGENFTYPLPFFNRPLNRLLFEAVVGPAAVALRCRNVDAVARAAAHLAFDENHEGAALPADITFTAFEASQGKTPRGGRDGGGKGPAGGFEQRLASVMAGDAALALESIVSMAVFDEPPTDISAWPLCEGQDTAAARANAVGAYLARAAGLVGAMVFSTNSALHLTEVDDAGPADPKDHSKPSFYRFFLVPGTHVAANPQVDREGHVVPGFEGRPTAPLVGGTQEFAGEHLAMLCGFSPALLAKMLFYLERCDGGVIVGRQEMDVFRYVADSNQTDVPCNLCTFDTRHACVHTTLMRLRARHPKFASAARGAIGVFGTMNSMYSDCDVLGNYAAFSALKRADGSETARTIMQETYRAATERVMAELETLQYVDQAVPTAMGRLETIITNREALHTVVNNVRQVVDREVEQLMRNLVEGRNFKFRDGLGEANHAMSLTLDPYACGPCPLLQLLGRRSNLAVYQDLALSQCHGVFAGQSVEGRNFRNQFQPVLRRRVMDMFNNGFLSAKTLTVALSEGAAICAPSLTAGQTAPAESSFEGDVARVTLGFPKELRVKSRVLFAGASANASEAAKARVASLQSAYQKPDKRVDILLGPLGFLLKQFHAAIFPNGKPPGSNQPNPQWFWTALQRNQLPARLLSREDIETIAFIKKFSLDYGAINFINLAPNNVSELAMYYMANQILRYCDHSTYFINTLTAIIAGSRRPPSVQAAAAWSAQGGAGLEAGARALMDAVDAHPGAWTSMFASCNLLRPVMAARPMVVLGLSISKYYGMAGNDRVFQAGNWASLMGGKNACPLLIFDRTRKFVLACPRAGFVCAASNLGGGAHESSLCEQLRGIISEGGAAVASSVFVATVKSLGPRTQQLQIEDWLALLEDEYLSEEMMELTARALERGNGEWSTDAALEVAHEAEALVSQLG
Description: label-free thermal shift (nanoDSF, Tycho NT.6); as a1 (1:10 M ratio), with 1.2 M excess of a 19-mer ssDNA added to the preformed binary complex; ΔTi counted against apo ICP8Δ60 without ssDNA (ssDNA alone gives 1.1 °C). To be noted: both partners purified. Background: Differential scanning fluorimetry follows unfolding on heating by fluorescence.

Data set [2] deals with T1, ICP8Δ60 (HSV-1 ICP8 lacking the 60-aa …). Description: MST; ICP8Δ60 labelled with NT-647-NHS at 20 nM or 50 nM, unlabelled CTD fragment titrated from low nanomolar to high micromolar; 20 mM sodium phosphate pH 7.5, 100 mM NaCl, 0.1 mM EDTA, 2 mM DTT, 5 mM MgCl2, 0.05% Tween 20; 30 min at RT; one site binding model. Particulars: both partners purified.
Data set [3] has the same target. The experiment in a line: label-free thermal shift (nanoDSF, Tycho NT.6); 5 μM ICP8Δ60 with a molar excess of CTD fragment (1:10 M ratio), no ssDNA; shift of the inflection temperature Ti of ICP8Δ60; 20 mM Na phosphate pH 7.6, 100 mM NaCl, 100 μM EDTA, 1 mM TCEP, 10% glycerol, 5 mM MgCl2; heated at 30 °C/min. To be noted: both partners purified.
Data set [4] has the same target. The experiment in a line: label-free thermal shift (nanoDSF), dose series refitted with MoltenProt; 5 μM ICP8Δ60 preincubated with 10 to 100 μM CTD fragment (1:2 to 1:20 M ratio) for 3 h at room temperature; two-state reversible unfolding model. To be noted: both partners purified.
The target of data set [5] is ICP8Δ60 (Herpes simplex virus type 1 (KOS), UniProt P17470 1-1136). The experiment in a line: MST; 20 nM DNA; EMSA: 20 mM HEPES pH 7.5, 150 mM KCl, 2 mM EDTA, 1 mM TCEP, 6% Ficoll, on ice 30 min, gel at 4 °C; thermal shift: 20 mM Na phosphate (SI: HEPES) pH 7.6, 100 mM. To be noted: protein: recombinant; tags: none stated; label: 5' Cy5; single strand.
Data set [6] concerns the molecule itself. Description: negative-stain electron microscopy of filament formation; 0.5 μM protein overnight at 4 °C in 20 mM HEPES-KOH pH 7.5, 100 mM NaCl, 10% glycerol, 1 mM DTT, 0.1 mM EDTA, 5 mM MgCl2; uranyl acetate stain; no DNA.
Data set [7] addresses ICP8 WT (Herpes simplex virus type 1 (KOS), UniProt P17470 1-1196). The experiment in a line: EMSA; cooperative supershifted band present; EMSA: 20 mM HEPES pH 7.5, 150 mM KCl, 2 mM EDTA, 1 mM TCEP, 6% Ficoll, on ice 30 min, gel at 4 °C; thermal shift: 20 mM Na phosphate (SI: HEPES) pH 7.6, 100 mM. To be noted: protein: recombinant; tags: none stated; chain copies: 4; label: Cy5; single strand. On the technique in general: A gel shift assay detects complexes by their altered migration in electrophoresis.

Substitutions are numbered along the chain they refer to. Names may count otherwise.

B1: ICP8-CTD Δ60 (domain or fragment)
chain: AASNLGGGAHESSLCEQLRGIISEGGAAVASSVFVATVKSLGPRTQQLQIEDWLALLEDEYLSEEMMELTARALERGNGEWSTDAALEVAHEAEALVSQLG
notes: ICP8 (UL29) of HSV-1, C-terminal domain (begins at 1036) with the last 60 residues deleted; source: E. coli BL21 (pET28a-His-ICP8-CTDΔ60), purified (Talon cobalt beads, Superose 12 gel filtration)
For the molecule B1, in data set [1], the “ΔTi of ICP8Δ60 (Ti complex - Ti apo), + ssDNA” value (from here on “ΔTi of ICP8Δ60 … + ssDNA”) came out at 2 °C. Besides, the Kd in data set [2] stood at 53.5 µM. Also, the “ΔTi of ICP8Δ60 (Ti complex - Ti apo), - ssDNA” value (“ΔTi of ICP8Δ60 … - ssDNA” for short) in data set [3] worked out at 0.7 °C.

B2: ICP8-CTD WT (His-tagged entire C-terminal domain of ICP8, residues 1036-1196) (domain or fragment)
chain: AASNLGGGAHESSLCEQLRGIISEGGAAVASSVFVATVKSLGPRTQQLQIEDWLALLEDEYLSEEMMELTARALERGNGEWSTDAALEVAHEAEALVSQLGNAGEVFNFGDFGCEDDNATPFGGPGAPGPAFAGRKRAFHGDDPFGEGPPDKKGDLTLDML
notes: ICP8 (UL29) of HSV-1, entire C-terminal domain with the helical bundle and the intact 60-aa disordered tail, residues 1036-1196; The methods give no limits for the pET28a construct and give aa 1049-1135 for the Flag-tagged CTD of the cell experiments; also called WT ICP8-CTD; WT CTD; source: E. coli BL21 (pET28a-His-ICP8-CTD, codon optimised), purified (Talon cobalt beads, Superose 12 gel …)
Consider B2, for which the “ΔTi of ICP8Δ60 … + ssDNA” value in data set [1] worked out at 2.9 °C. In data set [2], the Kd was found to be 0.147 µM. Moreover, in data set [4], the “Ti of ICP8Δ60 at 1:2 ratio (ICP8Δ60 alone 51.5)” value is 52.1 ± 0.1 °C, the “Ti of ICP8Δ60 at 1:5 ratio (ICP8Δ60 alone 51.5)” value came out at 52.7 ± 0.1 °C, the “Ti of ICP8Δ60 at 1:10 ratio (ICP8Δ60 alone 51.5)” value amounted to 53.3 ± 0.1 °C and the “Ti of ICP8Δ60 at 1:20 ratio (ICP8Δ60 alone 51.5)” value was found to be 53.9 ± 0.1 °C. For the same molecule, the “ΔTi of ICP8Δ60 … - ssDNA” value in data set [3] was 2.1 °C.

B3: ICP8-CTD D1087A (domain or fragment)
chain: B2 chain with D52A
notes: ICP8 (UL29) of HSV-1, C-terminal domain, residues 1036-1196, with D1087A; source: E. coli BL21 (pET28a-His-ICP8-CTD mutant), purified (Talon cobalt beads, Superose 12 gel filtration)
On to B3, for which the “ΔTi of ICP8Δ60 … + ssDNA” value in data set [1] was 2.4 °C. The Kd in data set [2] amounted to 1.55 µM. In data set [3], the “ΔTi of ICP8Δ60 … - ssDNA” value amounted to 1 °C.

B4: ICP8-CTD FNF→AAA (domain or fragment)
chain: B2 chain with F107A, N108A, F109A
notes: ICP8 (UL29) of HSV-1, C-terminal domain, residues 1036-1196, with the triple alanine substitution of F1142, N1143 and F1144; the text has 1142-1144; also called FNF→AAA CTD; source: E. coli BL21 (pET28a-His-ICP8-CTD mutant), purified (Talon cobalt beads, Superose 12 gel filtration)
As to B4, in data set [1], the “ΔTi of ICP8Δ60 … + ssDNA” value is 1.9 °C. The Kd in data set [2] was 21.1 µM. Moreover, in data set [3], the “ΔTi of ICP8Δ60 … - ssDNA” value came to 0.6 °C.

B5: Cy5-25-mer poly(dT) (ssDNA)
DNA: TTTTTTTTTTTTTTTTTTTTTTTTT
B5: the Kd in data set [5] worked out at 0.07 µM.

B6: ICP8 WT, full length (natural protein)
chain: METKPKTATTIKVPPGPLGYVYARACPSEGIELLALLSARSGDADVAVAPLVVGLTVESGFEANVAVVVGSRTTGLGGTAVSLKLTPSHYSSSVYVFHGGRHLDPSTQAPNLTRLCERARRHFGFSDYTPRPGDLKHETTGEALCERLGLDPDRALLYLVVTEGFKEAVCINNTFLHLGGSDKVTIGGAEVHRIPVYPLQLFMPDFSRVIAEPFNANHRSIGENFTYPLPFFNRPLNRLLFEAVVGPAAVALRCRNVDAVARAAAHLAFDENHEGAALPADITFTAFEASQGKTPRGGRDGGGKGPAGGFEQRLASVMAGDAALALESIVSMAVFDEPPTDISAWPLCEGQDTAAARANAVGAYLARAAGLVGAMVFSTNSALHLTEVDDAGPADPKDHSKPSFYRFFLVPGTHVAANPQVDREGHVVPGFEGRPTAPLVGGTQEFAGEHLAMLCGFSPALLAKMLFYLERCDGGVIVGRQEMDVFRYVADSNQTDVPCNLCTFDTRHACVHTTLMRLRARHPKFASAARGAIGVFGTMNSMYSDCDVLGNYAAFSALKRADGSETARTIMQETYRAATERVMAELETLQYVDQAVPTAMGRLETIITNREALHTVVNNVRQVVDREVEQLMRNLVEGRNFKFRDGLGEANHAMSLTLDPYACGPCPLLQLLGRRSNLAVYQDLALSQCHGVFAGQSVEGRNFRNQFQPVLRRRVMDMFNNGFLSAKTLTVALSEGAAICAPSLTAGQTAPAESSFEGDVARVTLGFPKELRVKSRVLFAGASANASEAAKARVASLQSAYQKPDKRVDILLGPLGFLLKQFHAAIFPNGKPPGSNQPNPQWFWTALQRNQLPARLLSREDIETIAFIKKFSLDYGAINFINLAPNNVSELAMYYMANQILRYCDHSTYFINTLTAIIAGSRRPPSVQAAAAWSAQGGAGLEAGARALMDAVDAHPGAWTSMFASCNLLRPVMAARPMVVLGLSISKYYGMAGNDRVFQAGNWASLMGGKNACPLLIFDRTRKFVLACPRAGFVCAASNLGGGAHESSLCEQLRGIISEGGAAVASSVFVATVKSLGPRTQQLQIEDWLALLEDEYLSEEMMELTARALERGNGEWSTDAALEVAHEAEALVSQLGNAGEVFNFGDFGCEDDNATPFGGPGAPGPAFAGRKRAFHGDDPFGEGPPDKKGDLTLDML
notes: also called WT ICP8; full-length ICP8
On to B6, for which the binding result in data set [6] is “binds”.

B7: Cy5-50-mer dT (ssDNA)
DNA: TTTTTTTTTTTTTTTTTTTTTTTTTTTTTTTTTTTTTTTTTTTTTTTTTT
In the case of B7, the binding result in data set [7] was “binds”.

The term Kd denotes the constant that tells how readily two partners part at equilibrium.

Values taken from publication PMC12409425, “Two distinct protein-protein interfaces drive cooperative binding of the herpes simplex virus protein ICP8 to ssDNA, filament formation and annealing essential for viral replication” (The Journal of Biological Chemistry, 2025).
